The target of the series is Staphylococcal enterotoxin A (SEA) (Staphylococcus aureus, UniProt P0A0L2 25-257).

One molecule from article PMC7023026, “A Label-Free Fluorescent Aptasensor for Detection of Staphylococcal Enterotoxin A Based on Aptamer-Functionalized Silver Nanoclusters” can be followed below.

Chain of Staphylococcal enterotoxin A (SEA) (P0A0L2 25-257): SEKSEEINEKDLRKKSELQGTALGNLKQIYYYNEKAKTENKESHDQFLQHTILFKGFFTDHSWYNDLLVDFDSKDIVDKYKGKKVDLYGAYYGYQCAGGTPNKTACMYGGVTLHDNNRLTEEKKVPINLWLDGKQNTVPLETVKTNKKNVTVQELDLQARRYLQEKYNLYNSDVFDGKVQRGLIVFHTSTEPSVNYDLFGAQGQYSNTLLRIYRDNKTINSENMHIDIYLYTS

B1: C6G5C6-apt (AgNC template) (structured_DNA)
DNA: CCCCCCGGGGGCCCCCCAGCAGCACAGAGGTCAGATGTACTTATGCATTTCCTCCCACGATCTTATTTGAGAGTGACCCTATGCGTGCTACCGTGAA
In the case of B1, the binding result is “binds”.
